Earlier results, collected in US20230312927A1, “POLY(SARCOSINE) POLYMER EXCIPIENTS” (CALUSA BIO, LLC, priority 2021, published 2023).

Tested on: anti-drug antibodies (ADAs)
Conditions: share of anti-drug antibodies that are neutralizing; van Schie et al. Ann. Rheum. Dis. 2015

Row | Substance | ADAs shown to be neutralizing [%]
1 | infliximab [Remicade] | 90
2 | adalimumab [Humira] | 97
